Measurements reported in the supplement of paper PMC12042874.
± gives the uncertainty stated by the source.

Assay: amyloid nucleation score (Sup35N fusion, yeast selection) (log enrichment); library NNK2; higher = more nucleation; inactive = no reads after selection
Procedure, shortened: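 Random libraries were run with three technical output replicates. In each, psi-negative yeast expressing Sup35N fused to peptides of 20 random codons were induced 24 hours with 100 μM copper sulfate and grown 7 days at 30°C on medium lacking adenine and uracil, and input and output plasmid inserts were Illumina-sequenced. The nucleation score is the DiMSum log enrichment of output over input reads, centred on the mode score of non-aggregating sequences, and sequences under 100 input reads were excluded.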

Substance | amyloid nucleation score
GRAPLSNNLMDSVTVESVHM | -0.744 ± 0.28
YQSPCVTVVSGKRALPRGGR | -0.001 ± 0.28
EYLTNVMVRGDYFGWDHAIA | -0.949 ± 0.63
IFGLCCFCGSYQRY | 8.152 ± 0.033
NWIDVLFKCKC | -0.156 ± 0.62
VAKRISHGIQLSLSCKGTRP | 0.138 ± 0.76
FGIFEQMMFLHNVCSDFTAS | -0.447 ± 1.1
VHVRGACCHGCRARNVSGHP | 1.05 ± 0.19
NICRM | -0.058 ± 0.53
PDWLCEVKRIYELIGYMALI | 0.41 ± 0.41
YQSDLTYLE | -0.518 ± 0.35
SGNSENSTLVKNYFSTLSLS | -0.124 ± 0.5
YVANGPFCPDFLLLAGWYGV | 0.447 ± 0.53
WVSVRKRHWTTHWLGVGVPN | 0.611 ± 0.66
IVSEIFSG | -0.369 ± 1.1
MSYILFCLPSNARCFLP | inactive
SPTNIRP | -0.185 ± 0.47
HVRGDLSRTGKWVMLRCYTR | inactive
KHFRREW | 1.35 ± 0.41
IKIIPPLKLLCVLGWHSRGA | 1.35 ± 0.19
VDLTIVHRGGGAGMGSNRVK | 0.176 ± 0.24
LCLTLVRPPRSCMLATL | inactive
LHIGKFNVNLFN | 4.32 ± 0.045
CFCQTCSLSRAKSMEEGCLR | -1.08 ± 0.54
GKPCH | 0.52 ± 0.33

Substance | amyloid nucleation score
INRPYNIVGRRSSPSHIVTF | inactive
VVFCGVFLCDCDNGESSSRY | 8.989 ± 0.071
RHSCFICFNVLVICGLNLSL | 5.927 ± 0.037
SANSRVGGLGNL | 0.717 ± 0.39
PSGPSHIYGWYDSFHNCSYN | -0.369 ± 0.49
AVQEEARLALSVEPWSSDSG | 1.22 ± 0.28
SRSYSNLWLGAHVLTRLRHD | -0.337 ± 1.1
VTCGV | 0.179 ± 0.56
NTMTSHMFENNRSIVTYLDV | -0.718 ± 0.76
MSRIRTTTMNSGFGGYTPVL | 3.06 ± 0.056
TGYVE | 0.293 ± 0.26
FWVMANYRH | 3.18 ± 0.047
RNSPSRKNL | -0.415 ± 0.36
RYNILSSSATV | inactive
RIFMWAYLAYCDNISEVRRR | -0.554 ± 1
SYPYFMLRTTLNTLKTWFWM | -0.403 ± 1
RGINVGGWLSLGFTGAVHSL | 3.4 ± 0.12
TMMSQVGMDR | 0.377 ± 0.34
VGVWTALTPCKVVFTSDRLS | 1.23 ± 0.4
FVLFENSGLFMGLDICMLCQ | 1.01 ± 0.32
SVYMPSVCNKLFFRGCGYGF | 3.04 ± 0.096
KPHGGGSRLGCRGKWLTILL | 1.29 ± 0.32
LKGCQDLLLVDSGGSTTWYG | -0.836 ± 0.63
YFSCITILGFGSSNSWRRIM | -1.02 ± 0.78
GMIGNTIGNECTIYLNDQYV | 0.825 ± 0.34

Substance | amyloid nucleation score
YQLRCKCSTF | -0.757 ± 0.41
MSFYFNFIYYFYSYFTFEWF | inactive
SFNWNC | -1.15 ± 0.76
GSHKK | -1 ± 1.1
DMLVDYSIKDDRVYKVRLPM | -1.61 ± 0.62
VDLAR | inactive
CVCYDLYELLAITQLHLWSF | -0.344 ± 0.48
KTFTWHIVRLYYKYPPMPKV | inactive
VCQLQYILRNMLDKTRVSQD | 0.912 ± 0.26
KYGDNSMYLMLLMVCYKGAC | -0.622 ± 1.1
SSVLPGVRPGWNTMWWAACL | 0.844 ± 0.39
WSMCFMPVRWSFSGTIYMHK | 0.472 ± 0.56
KSRLGCTWSGAHQSIRPLRR | 1.22 ± 0.41
SAFDKASERLCSESVYKGKN | 1.7 ± 0.099
LGCNDSWEWDFVTPNGTFPF | -0.445 ± 0.48
LKIYLCIPHRRL | 0.082 ± 1.1
FLVYWTMLVVYGYCVFGWIN | -1.3 ± 0.78
LRYVVNPF | -0.979 ± 0.37
VRLNDWMVHLND | 0.752 ± 0.35
SAGGVSPFP | -0.659 ± 0.63
LWREYLVHGSP | 0.329 ± 0.5
HVVLNFCDTVWLMSKAP | 9.03 ± 0.078
LINMLGWVRFY | 0.623 ± 0.44
IVAGVSSGQGIDQDSIVNKR | 0.102 ± 1.1
IRMDGYEIRFSHSLYYLSH | 2.45 ± 0.081

Substance | amyloid nucleation score
CVDTSFCLYARELILCAR | -0.121 ± 0.5
SFGWDYVDPQLKNTCTHCRV | -0.795 ± 0.48
TFVRVPFWFRKN | 9.788 ± 0.071
HSSEIL | -0.006 ± 0.65
AVVVREAFLLFLKAIERAGI | -1.31 ± 0.55
WLLNYYRGGVWLGLWTRKE | -1.3 ± 0.48
SCRIFFE | -0.062 ± 0.65
TLSSFL | -1.55 ± 0.41
CVDVDIKMLPGFCRCNIPLC | -1.34 ± 1.1
HMSRTPQAVRTSHPRVKNRI | -0.026 ± 0.26
IIWQPHSPCVRVYTCLSLIF | -1.67 ± 0.53
RFGRSQVRAKCRVDDDRWIR | 4.63 ± 0.071
KTGESMVNPIARMWLR | 1.51 ± 0.17
IFCCIRFLV | 6.549 ± 0.03
ALLQICCSFIIYHTLLPAPA | 6.11 ± 0.064
RWICWAMCSYLRRRKKP | 0.527 ± 0.65
CWDRFTYEYLSFYSLISRV | inactive
TRISGLGPDRDFSFRAASAK | -0.446 ± 0.76
GASRVAPVCQTTKSLKCMAK | -1.17 ± 1.1
SFFWPPHLKRVLFLQLRTIC | 0.777 ± 0.44
SILSRCIRQVLFREPDVWRS | -0.32 ± 0.48
SFVSTVFMGRVFMQHAISTR | -1.08 ± 0.55
SYYFQAFDYKFLSMVIDAYG | 7.085 ± 0.043
NSIESNSCKWVRNVCTANSG | -0.587 ± 0.76
PCTVHASNRTLGHRVKSCSV | -0.515 ± 1.1

Substance | amyloid nucleation score
GFKVF | -0.937 ± 0.31
NRSREELYARNKQYFSFI | -0.986 ± 0.76
RARGIV | -0.664 ± 0.55
PDGSASIGGYYGQFLL | -0.746 ± 0.62
TLPWFGSFLRGVFKVPLIRG | 2.27 ± 0.1
INFSTLYDLGESFFYQCPKM | inactive
GWAIPFADIEHCHVLLRISV | 0.914 ± 0.46
SILYVSRLTFR | 0.218 ± 1.1
WSVYKVLYCLTGFRFQRSRL | inactive
RFFFYGLGMFYIETFYLLWF | inactive
MDWVQGAFMPRGSGHWHN | -0.327 ± 0.79
SLFLARRASTIARLFKRVYM | 0.127 ± 0.63
PMSDMFYFFGFECSRLIMSN | inactive
AFVCMRVVLICKIRLNFVRA | -0.519 ± 0.5
MWNQDLSFFCITRDIKVCTF | 4.87 ± 0.06
HGICRWL | 0.208 ± 0.25
PNQISNA | -0.47 ± 1.1
LGFAMWFTPRFCFTVYNSYD | -0.422 ± 1
SYYTL | inactive
VHGRGNLKA | 0.032 ± 0.33
WYLYFFVFLLHMNRNLFLVL | -1.63 ± 0.55
EYMPP | 0.924 ± 0.16
GFLIKWNNGVLVLVSAMMCI | -0.598 ± 0.4
CASVSQGPKQLLPPNVTGLY | -0.176 ± 0.45
VYRYIVIYPFVKWHKTDRFC | -0.805 ± 0.33

Substance | amyloid nucleation score
CFFTSYTRA | -0.114 ± 0.55
ENCLESWTCI | -1.08 ± 0.78
MTVYLLIVLKFCFRRMSPEA | -0.255 ± 0.49
GMTVR | 0.011 ± 0.54
GYIYPNRIHNLYVGTMSVTV | 5.43 ± 0.093
YEYDLSPCSVVRRVTLKRMV | 1.55 ± 0.4
PTGNQLKKCVDKCGGRSGGE | inactive
VDPPLGKWGAEGCI | 0.484 ± 0.51
AIWVMVANSMHCCVA | 8.622 ± 0.027
KPWFVVDRKNFRSNSAPWLG | 0.073 ± 0.29
LCRMCIANCLMSCWESSYQV | 3.13 ± 0.17
SCIYRE | -0.097 ± 0.21
AILNAVGCNWGTRCDGLSVQ | -0.213 ± 0.48
MDYWVFMPFQLHRLCCYTPL | -0.303 ± 0.24
NTLSR | 5.654 ± 0.05
FRLLWCMFSL | 0.571 ± 0.13
SSSMSESAT | inactive
ENIISERAFS | inactive
NLSRV | -0.741 ± 0.34
IIVSATSEGSLRRIRMKMGW | 4.27 ± 0.11
NRSTDAYFIILHICYTNGVY | -0.429 ± 0.61
YMLMREASGLLRPGAEMWFN | -0.177 ± 0.45
RWEMLPVKSHNNLRIRK | -0.293 ± 0.31
FDSLAKLFSRIVLLLLLNDR | -0.032 ± 1.1
RKLGYFLRLRKKATHGRLLV | 5.5 ± 0.067

Substance | amyloid nucleation score
VYFTSVMNSCVYVSAVCEMC | 6.953 ± 0.046
FLMACPMFIIVYLCRT | inactive
WEDAVDSSVRFC | -0.211 ± 0.61
FLFLTTVSPRWTYRCTRFLG | 4.64 ± 0.055
RLCGV | -1.17 ± 0.55
WVVRPPDTLVLDETRVGSGM | 0.699 ± 0.34
TSDPCFFCNST | -0.381 ± 0.79
MFSRIWPSSDL | -0.324 ± 1.1
SCVMGYKEVAFL | -0.081 ± 0.34
VWAHL | -0.191 ± 0.35
QVSFEFNRLMGCMLKMTMMT | -0.308 ± 0.49
GRVRKSHTVGSACNILYSCA | 1.32 ± 0.29
DDVSHPHLKCIVWD | inactive
NSNGTFGQCLVM | -0.293 ± 0.5
VSGFFSDHA | -1.06 ± 1.1
SRYKWKTDVHTKWTCHF | 1.73 ± 0.091
SDNSM | -0.235 ± 0.32
KENDVNLD | 1.5 ± 0.44
RLFTRANCIHFRERKVRKIH | 0.078 ± 0.29
IVLYVHTTLLAGS | 4.6 ± 0.091
RFLSYTSCLEMIVFCGRVQG | 0.207 ± 0.23
FSRLTGN | -0.883 ± 0.54
GIMYGEFMPLR | inactive
AIVDFTKNFIQCAY | inactive
HSQRNP | inactive
